According to paper PMC9675814, “DNA mechanical flexibility controls DNA potential to activate cGAS-mediated immune surveillance”:

How the values were obtained:
hcGAS WT [1] = biological target: T1, hcGAS WT (Homo sapiens, UniProt Q8N884 1-522); assay: MST; conditions: EMSA: 50 nM Cy3-DNA, 20 mM Tris-HCl pH 7.5, 150 mM NaCl, 37 C 30 min, 1.5% agarose, MST: 50 nM Cy5-DNA, same buffer, room temperature, MARTFQ: 50 nM cGAS
hcGAS WT [2] = biological target: T1, hcGAS WT; assay: EMSA; EMSA: 50 nM Cy3-DNA, 20 mM Tris-HCl pH 7.5, 150 mM NaCl, 37 C 30 min, 1.5% agarose; MST: 50 nM Cy5-DNA, same buffer, room temperature; MARTFQ: 50 nM cGAS, DNA titration, 5 min; conditions: protein: recombinant, tags: His (pET-28a, Ni purified), label: 5' Cy3 on F (EMSA)
hcGAS WT [3] = biological target: T1, hcGAS WT; assay: MARTFQ fluorescence quenching; EMSA: 50 nM Cy3-DNA, 20 mM Tris-HCl pH 7.5, 150 mM NaCl, 37 C 30 min, 1.5% agarose; MST: 50 nM Cy5-DNA, same buffer, room temperature; MARTFQ: 50 nM cGAS, DNA titration, 5 min; conditions: protein: recombinant, tags: His (pET-28a, Ni purified)
[4] = blunt, self-complementary strands

T1 sequence (Q8N884 whole entry): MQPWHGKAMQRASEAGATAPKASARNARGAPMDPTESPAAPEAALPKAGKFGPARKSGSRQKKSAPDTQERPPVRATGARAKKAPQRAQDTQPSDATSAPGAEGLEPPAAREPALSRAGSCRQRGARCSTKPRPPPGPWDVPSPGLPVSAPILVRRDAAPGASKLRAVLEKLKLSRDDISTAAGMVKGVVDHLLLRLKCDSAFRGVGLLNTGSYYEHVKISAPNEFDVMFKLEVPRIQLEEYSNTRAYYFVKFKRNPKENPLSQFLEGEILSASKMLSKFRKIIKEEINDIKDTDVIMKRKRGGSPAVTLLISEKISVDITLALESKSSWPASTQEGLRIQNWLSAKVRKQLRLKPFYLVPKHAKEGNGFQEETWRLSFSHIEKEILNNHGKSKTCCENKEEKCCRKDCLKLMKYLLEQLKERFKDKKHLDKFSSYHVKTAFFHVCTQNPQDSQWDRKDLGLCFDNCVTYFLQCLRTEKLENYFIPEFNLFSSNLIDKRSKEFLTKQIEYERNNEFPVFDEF

**Q.** How did the Kd (hcGAS WT [1]; 8-oxo-dG) turn out when 8-OdG ISD was run?
**A.** 97.9 nM

**Q.** Which Kd (hcGAS WT [1]; gap) does the source give for Gap ISD here?
**A.** 75.8 nM

**Q.** With Mis ISD as the molecule, how does the Kd (hcGAS WT [1]; mismatch) read?
**A.** 108 nM

**Q.** How did the Kd (hcGAS WT [1]; nick) turn out when Nick ISD was run?
**A.** 150 nM

**Q.** Which Kd (hcGAS WT [1]) does the source give for Ctrl ISD here?
**A.** 1270 nM

B1: Gap E8A26 63 bp (dsDNA)
DNA 1: TTTTATTTATCGCCTCCTTTTTTTTTTTTTTTTTTTTTTTTTTCCGTGTTATCTCGAGTTAGT
DNA 2: ACTAACTCGAGATAACACGGAAA
DNA 3: AAAAAAAAAAAAAAAAAAAAAAGGAGGCGATAAATAAAA
modifications: 1 nt gap in R strand
**Q.** Does B1 bind (hcGAS WT [2]; gapped duplex, three strands)?
**A.** binds

B2: pGC 44 bp poly(dG:dC) (dsDNA)
DNA 1: CGCGCGCGCGCGCGCGCGCGCGCGCGCGCGCGCGCGCGCGCGCG
DNA 2: B2 DNA 1
**Q.** How did the Kd (hcGAS WT [3]; [4]) turn out when B2 was run?
**A.** 376 ± 78.8 nM

B3: E8 63 bp (dsDNA)
DNA 1: TTTTATTTATCGCCTCCACGGTGCTGCACGTACGCGCTGTTGGCCGTGTTATCTCGAGTTAGT
DNA 2: ACTAACTCGAGATAACACGGCCAACAGCGCGTACGTGCAGCACCGTGGAGGCGATAAATAAAA
**Q.** Does B3 bind (hcGAS WT [2]; blunt)?
**A.** binds

B4: pAT 44 bp poly(dA:dT) (dsDNA)
DNA 1: ATATATATATATATATATATATATATATATATATATATATATAT
DNA 2: B4 DNA 1
**Q.** For B4, which Kd (hcGAS WT [3]; [4]) is on record?
**A.** 640 ± 123 nM

B5: pA:pT 44 bp (dsDNA)
DNA 1: AAAAAAAAAAAAAAAAAAAAAAAAAAAAAAAAAAAAAAAAAAAA
DNA 2: TTTTTTTTTTTTTTTTTTTTTTTTTTTTTTTTTTTTTTTTTTTT
**Q.** Which Kd (hcGAS WT [3]; blunt) does the source give for B5 here?
**A.** 3460 ± 637 nM

B6: Gap pA:pT 44 bp (dsDNA)
DNA 1: B5 DNA 1
DNA 2: TTTTTTTTTTTTTTTTTTTTTT
DNA 3: TTTTTTTTTTTTTTTTTTTTT
modifications: 1 nt gap in dT strand
**Q.** Which Kd (hcGAS WT [3]; gapped duplex, three strands) does the source give for B6 here?
**A.** 190 ± 35.2 nM
